The Human Domainome abundance scans (Beltran et al. 2025)

B1: Chromodomain-helicase-DNA-binding protein 7, residues 2564 to 2605; numbered along this chain, Q9P2D1 (parent)
chain: DPDTRIPVINLEDGTRLVGEDAPKNKDLVEWLKLHPTYTVDM

Variants of: B1
Assay: abundance fitness (aPCA) (normalised: wild type 0, dead -1); higher = more abundant; growth selection in yeast, the domain comes from the species named
Settings: Homo sapiens

Abundance fitness, by site and new letter:
M42: A 0.132, I -0.189, N 0.025, K -0.528, H -0.04, P -0.569, F -0.244, L -0.172, T 0.142, W -0.438, R -0.092, G -0.096, Q 0.108, S 0.111, V -0.065, Y -0.027
V40: R -0.065, L -0.381, P -0.166, K -0.11, T -0.08, E -0.238, G -0.367, D -0.295, A 0.135, Q -0.108, I -0.135, N -0.341, S -0.144, H -0.372, C -0.152, M -0.379, F -0.59
Y38: N -0.459, S -0.297, P -0.916, T -0.331, C -0.445, E -0.387, H -0.216, V -0.652, G -0.327, F -0.128, R -0.449, K -0.321, I -1.02, A -0.447, D -0.278, L -0.632, W 0.085
T39: H -0.186, K 0.076, V -0.004, P -0.771, I -0.158, G -0.295, Q 0.006, E 0.046, F -0.639, R 0.002, C -0.212, L -0.42, A -0.279, N -0.162, S -0.038, Y -0.347, W -0.835, M -0.382
D41: E -0.179, M -0.531, Q -0.422, V -0.793, K -1.14, H -0.364, I -0.871, T -0.586, C -0.531, P -0.453, L -0.594, W -0.84, A -0.396, N -0.343, G -0.335, R -0.841, S -0.438
P36: S -0.457, L -0.81, N -0.36, Q -0.461, W -0.731, E -0.406, I -0.65, R -0.401, G -0.484, H -0.492, K -0.321
T37: H -0.014, R -0.05, S -0.058, I -0.221, E -0.202, F -0.727, M -0.082, W -0.231, D -0.09, Q -0.273, L -0.159, G 0.022, A -0.131, N -0.059, P -0.281
